This is an account of results in patent US20120252691, “MODIFIED NUCLEOTIDES METHODS AND KITS” (Pierce Biotechnology, Inc., published 2012).

In this data set the target is PABPC1-GST (Poly(A) binding protein) (UniProt P11940 P11940:1-636). Kind of data set: pulldown; 10 mM Tris pH 7.5, 2.5 mM MgCl2, 10 mM KCl, 15% glycerol, tRNA, 4 C; also with UV crosslinking (FIG. 17). The settings on record: tags: GST; label: 3'-biotin-PEG12-alkane-cytidine. Here is the method:
Poly(A)₂₅ RNA was labeled using biotin-PEG₁₂-alkane-3′5′-bisphosphate cytidine and T4 RNA ligase. The Poly(A) Binding Protein (PABP), which binds the poly(A) tracts of mRNA, was cloned into a vector containing a GST-tag and expressed in a human cell-free in vitro translation (IVT) system. The lysate was diluted 1:10 for use in the binding reaction. The labeled RNA (50 pmol) was incubated with streptavidin magnetic beads (0.5 mg) for thirty minutes in 20 mM Tris-HCl (7.5), 100 mM NaCl, 1 mM EDTA. After washing, the beads were then incubated with 2-3 μl of diluted IVT lysate cell lysate in Binding Buffer (10 mM Tris-HCl, pH 7.5, 2.5 mM MgCl₂, 10 mM KCl, 15% glycerol, 0.5% Tween-20, and 10 μg tRNA) for one hour at 4° C. An unrelated RNA was used as a negative control, and beads were incubated with lysate alone to assess background. […] After separation by electrophoresis, PABP was detected using PABP antibody.
Synthetic RNA (50 pmol/reaction) was end-labeled using a twenty-fold excess of Biotin-PEG₁₂-Alkane-3′5′-Bisphosphate Cytidine with T4 RNA ligase. […] Normalized samples were separated by electrophoresis, transferred, and detected using PABPC1, GST (SNRPA1) antibodies (1:1000 dilution in TBST-0.5% BSA). […]

PABPC1-GST (Poly(A) binding protein), sequence (P11940 whole entry, one chain of several): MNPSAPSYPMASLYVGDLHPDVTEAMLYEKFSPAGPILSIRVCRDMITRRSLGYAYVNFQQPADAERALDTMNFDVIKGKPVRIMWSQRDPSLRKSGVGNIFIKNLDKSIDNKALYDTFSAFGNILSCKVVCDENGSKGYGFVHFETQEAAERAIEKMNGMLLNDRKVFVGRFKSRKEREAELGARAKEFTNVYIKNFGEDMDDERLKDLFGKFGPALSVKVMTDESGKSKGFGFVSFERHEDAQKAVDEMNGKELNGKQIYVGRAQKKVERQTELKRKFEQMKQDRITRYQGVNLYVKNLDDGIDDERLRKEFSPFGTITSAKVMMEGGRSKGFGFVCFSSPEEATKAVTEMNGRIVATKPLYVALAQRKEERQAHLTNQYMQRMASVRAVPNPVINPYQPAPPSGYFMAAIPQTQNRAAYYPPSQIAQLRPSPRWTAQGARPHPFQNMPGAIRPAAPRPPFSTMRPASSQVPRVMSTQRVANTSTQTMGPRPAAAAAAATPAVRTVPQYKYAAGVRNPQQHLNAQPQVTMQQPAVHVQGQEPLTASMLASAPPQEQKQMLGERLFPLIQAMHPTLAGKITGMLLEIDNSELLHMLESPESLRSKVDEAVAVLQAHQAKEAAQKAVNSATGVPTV

Take AAAAAAAAAAAAAAAAAAAAAAAAA (ssRNA) [Poly(A)25 RNA, biotin-PEG12]: the binding result was “binds”.
